Data published in paper PMC7681980.
Where two headings read alike, the source gives them in different places.

Tests used:
[1] = target: type I collagen extracted from male Wistar Hannover rat tail tendons (dialyzed) (rat (Wistar Hannover, extracted from tail tendons)) (UniProt P02454); assay: ITC; NaOH (4.6 uM in ultrapure water) titrated in 24 aliquots into 950 uL type I collagen (0.2 mg/mL in 0.33% v/v acetic acid), 30.0 ± 0.1 °C, stirred at 300 rpm; self-assembly (fibrillogenesis) triggered by the rise in pH; areas corrected by the acid-base control titration; enthalpy of self-assembly at the isoelectric point; at least triplicate
[2] = target: type I collagen extracted from male Wistar Hannover rat tail tendons (dialyzed) (rat (Wistar Hannover, extracted from tail tendons)) (UniProt P02454); assay: as above; remark: listed apart in the source

Sequence of type I collagen extracted from male Wistar Hannover rat tail tendons (dialyzed), P02454 152-1207; P02466 86-1125 (complex; other documents disagree on this pair) (P02454 152-1207): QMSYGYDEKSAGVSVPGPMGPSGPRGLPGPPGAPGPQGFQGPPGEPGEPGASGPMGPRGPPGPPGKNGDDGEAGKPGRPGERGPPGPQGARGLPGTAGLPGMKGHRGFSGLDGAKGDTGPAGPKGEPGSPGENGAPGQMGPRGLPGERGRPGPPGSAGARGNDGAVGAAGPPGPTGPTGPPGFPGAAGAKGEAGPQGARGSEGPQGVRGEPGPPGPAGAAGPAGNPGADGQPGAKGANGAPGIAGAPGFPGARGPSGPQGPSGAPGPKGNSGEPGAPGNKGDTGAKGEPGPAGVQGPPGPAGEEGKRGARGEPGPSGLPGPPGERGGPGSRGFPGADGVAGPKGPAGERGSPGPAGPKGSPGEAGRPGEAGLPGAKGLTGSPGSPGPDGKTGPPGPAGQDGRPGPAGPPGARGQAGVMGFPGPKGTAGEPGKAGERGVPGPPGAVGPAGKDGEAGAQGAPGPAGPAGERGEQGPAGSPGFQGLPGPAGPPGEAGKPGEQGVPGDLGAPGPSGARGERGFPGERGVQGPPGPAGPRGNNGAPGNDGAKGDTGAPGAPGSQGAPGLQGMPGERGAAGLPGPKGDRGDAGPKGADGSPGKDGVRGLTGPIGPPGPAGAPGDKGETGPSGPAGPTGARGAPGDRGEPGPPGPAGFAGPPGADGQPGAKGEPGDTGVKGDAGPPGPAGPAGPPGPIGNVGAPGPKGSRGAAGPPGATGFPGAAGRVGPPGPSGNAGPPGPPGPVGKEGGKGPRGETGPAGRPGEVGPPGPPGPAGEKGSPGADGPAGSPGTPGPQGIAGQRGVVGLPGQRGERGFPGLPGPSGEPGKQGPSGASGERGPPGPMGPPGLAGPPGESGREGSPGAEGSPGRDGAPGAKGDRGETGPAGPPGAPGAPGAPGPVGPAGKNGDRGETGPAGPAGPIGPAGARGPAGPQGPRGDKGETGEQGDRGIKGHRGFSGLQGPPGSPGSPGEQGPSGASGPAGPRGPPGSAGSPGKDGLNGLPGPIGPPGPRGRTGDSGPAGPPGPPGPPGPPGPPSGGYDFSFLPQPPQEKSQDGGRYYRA
Sequence of type I collagen extracted from male Wistar Hannover rat tail tendons (dialyzed), P02454 152-1207; P02466 86-1125 (complex; other documents disagree on this pair) (P02466 86-1125): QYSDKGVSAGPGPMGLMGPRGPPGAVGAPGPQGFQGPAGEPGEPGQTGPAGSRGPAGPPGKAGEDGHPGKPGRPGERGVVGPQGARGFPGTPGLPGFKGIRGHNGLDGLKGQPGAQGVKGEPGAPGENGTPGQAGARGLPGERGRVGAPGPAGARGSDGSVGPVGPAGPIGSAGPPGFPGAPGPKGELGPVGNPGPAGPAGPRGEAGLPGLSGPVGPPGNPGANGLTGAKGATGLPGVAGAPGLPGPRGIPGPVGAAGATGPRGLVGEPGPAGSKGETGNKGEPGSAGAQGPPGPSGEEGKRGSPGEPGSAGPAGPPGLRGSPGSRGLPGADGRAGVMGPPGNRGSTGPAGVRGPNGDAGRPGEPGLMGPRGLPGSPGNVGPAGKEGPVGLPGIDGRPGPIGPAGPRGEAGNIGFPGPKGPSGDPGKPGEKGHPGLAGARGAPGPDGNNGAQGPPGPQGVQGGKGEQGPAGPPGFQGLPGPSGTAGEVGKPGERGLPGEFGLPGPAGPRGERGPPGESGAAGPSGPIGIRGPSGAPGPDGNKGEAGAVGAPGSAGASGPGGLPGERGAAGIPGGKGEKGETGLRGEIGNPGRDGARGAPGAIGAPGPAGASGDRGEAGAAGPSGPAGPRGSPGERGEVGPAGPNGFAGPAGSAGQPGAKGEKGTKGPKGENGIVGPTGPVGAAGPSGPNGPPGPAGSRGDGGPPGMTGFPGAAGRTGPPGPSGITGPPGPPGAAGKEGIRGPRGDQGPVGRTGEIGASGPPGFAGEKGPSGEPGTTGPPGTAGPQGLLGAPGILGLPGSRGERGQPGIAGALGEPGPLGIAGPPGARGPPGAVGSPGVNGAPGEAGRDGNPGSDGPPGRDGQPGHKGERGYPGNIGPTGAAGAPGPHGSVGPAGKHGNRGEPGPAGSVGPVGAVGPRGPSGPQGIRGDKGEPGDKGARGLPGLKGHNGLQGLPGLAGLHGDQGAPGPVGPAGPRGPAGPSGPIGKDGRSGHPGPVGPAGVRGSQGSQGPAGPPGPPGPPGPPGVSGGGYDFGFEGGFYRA

In the case of “type I collagen extracted from male Wistar Hannover rat tail tendons (dialyzed), P02454 152-1207; P02466 86-1125 (complex; other documents disagree on this pair)”, the dH [1] is reported as 0.000784 kcal/mol and the dH [2] is reported as 0.000782 kcal/mol.
